# Laboratory results published in the supplement of paper PMC9170038.
# Tested on: MS2 coat protein
# Assay: apparent KD of MS2 coat protein; higher = weaker reporter binding
# Conditions: Eterna round: R107
# Summary of the method: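 Apparent KD per design is the median of normalised cluster binding-curve fits. Designed RNA switches transcribed on-chip from Illumina sequencing clusters were titrated with SNAP-549-labelled MS2 coat protein in twofold steps from 0.7 or 1.5 nM to 3 µM, with 0.8–1.5 h down to 10–20 min per step. Buffer: 100 mM Tris-HCl pH 7.5, 80 mM KCl, 4 mM MgCl2, without or with constant ligand.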
# [1] = input ligand: theophylline 20 uM
# [2] = input ligand: tryptophan 2.4 mM
# [3] = input ligand: theophylline 2 mM
Sequence,apparent KD of MS2 coat protein (input ligand: arginine 13.2 mM) [nM],apparent KD of MS2 coat protein [1] [nM],apparent KD of MS2 coat protein [2] [nM],apparent KD of MS2 coat protein [3] [nM],apparent KD of MS2 coat protein (input ligand: none) [nM]
GGUGGCGUGACGGAUACCAGCCACCACCGAUAGACCACAUGAGGAUCACCCAUGUUGGGUGGCCCUUGGCAGCUGUCGUGCGGCG [#1 Same State - Theophylline B Attempt #17 (HarryS)],82,409,220,–,–
GGUUACUCUACGGCCGCCACUGAUUAAUUAUAAUCCUGUACAUAAACAUGAGGAUCACCCAUGUACAGGACCGGGUAGUGUAACC [Tryptophan B 10],32.3,46.2,–,36.3,–
GGUUGAAACUGAAGGAGCGAGAUCACAAGAUUGGGUCUAACAUGAGGAUCACCCAUGUAAUCUCAGGUAGGUCGCAGUGACCAAA [Exclusion Arginine B GF 13],28,45.1,38.1,51.7,38.4
GUAAUUUUAAGAAGGAGCGUCGAAAAUGGGUAAACAUGAGGAUCACCCAUGUAAAGGGAACGACAGGUAGGUCGCUUAGGAUUAC [AstromonsSSArgB#23],113,235,198,220,191
GUACACAUGAGGAUCACCCAUGUACUGGUACGAGGACCGGUACGGCCGCCACUCGCCGAGAUUCAUAACACAUCAGAAAGCUCAC [theeternabot_sameState_MS2_Trp_A_45],13.5,27.6,–,18.8,–
GUACAUGAGGAUCACCCAUGUAUAGUUGAAGGAGCGACCGGAGGGUCAGGUAGGUCGCAGCACAUGGCGUAAACCCGUGUAUGCC [#1 Exclusion - Arginine A Attempt #24 (Inspired by Pi)],18.5,32.7,23,31.9,21.7
GUACAUGAGGAUCACCCAUGUAUAGUUGAAGGAGCGACCGGUGGGUCAGGUAGGUCGCAGCGCAUGGCGUCAACCCGUGUAUGCC [#1 Exclusion - Arginine A Attempt #27 (Inspired by Pi)],13.8,24.8,17.9,21,17.2
GUUAUGGACCUGGAUACCAGCUGGUACGAGGGCGGUCUACAUGAGGAUCACCCAUGUGUCAGCCCUUGGCAGCCAGCAACCCGCU [Raquleer],10,12.6,9.92,11.9,9.39
GUUGGAUGCUCGGCCGCCACUGAGAGAGUCAUGUGAACAUGAGGAUCACCCAUGUAAUAUAUAUACAGGACCGGGAGUGUUGUAA [4.J],19.7,50.6,13.3,25,19.5
GUUGGUUUGCGAAGGAGCGGGUAUGUUGUCUACUUGAUCCUAACAUGAGGAUCACCCAUGUCCCAGGUAGGUCGCGCGGGCUUUG [12.aC],37,63.9,46.8,81,45.1
GUUGGUUUGGGAAGGAGCGGGUAUGUUGUCUACUUGAUCCUAACAUGAGGAUCACCCAUGUCCCAGGUAGGUCGCCCAAGCUUUG [12.aE],69.8,152,186,316,161
GUUUUAUCAAAAGAUGAAACAGUGGGUGAACGAGGACCGGUACGGCCGCCACUCGGACAUGAGGAUCACCCAUGUCCAUGUGAAA [AstrosExyTryA#13],15.4,17.1,54.1,21.1,18.4
GUUUUGGGAUCGGCCGCCACUACAUGAGGAUCACCCAUGUGGACAAAUAGGGUUUUUAAGCUCGGUAGGACCGGGAUUCGAACAU [Abeis],15.4,19,–,17.5,–
UAAACUACACAUGAGGAUCACCCAUGUGGCCGAGGACCGGUACGGCCGCCACUCGUGUGUUAAUAAAAGAACUGCAAAGUUCCUU [Aquen],63.1,416,–,504,–
UAACAUGAGGAUCACCCAUGUAUACUAAGUCGAGGACCGGUACGGCCGCCACUCGAAAUUGAAGAAUUGGCGGUAAAUGUAAGUA [JR_ExcTryptoA_Sub019],12.6,15.9,–,14.3,–
UAACAUGAGGAUCACCCAUGUAUACUUAGUCGAGGACCGGUACGGCCGCCACUCGUACUUCAAGAUUUGGCGGAAAAUGUAUGUA [JR_ExcTryptoA_Sub021],14.2,15.6,–,12.5,–
UAAUGCAGGUCGGCCGCCACUACAAACAUGAGGAUCACCCAUGUAGUUACUGGGUGAAGUGGCAGUAGGACCGGGACCUGCAUAA [Trp-Ms2-T'-M'-T''_Design1],102,602,–,1040,–
UAAUUCACUAUUCACGGUCCGAUGUUCGAUACCAGAUCAUUUCGAAUCCCUUGGCAGCGAUUAACAUGAGGAUCACCCAUGUAAC [theeternabot_exclusion_MS2_Theo_A_35],28.4,40.6,38.6,–,–
UACACAUGACAUGAUACCAGCCCAUGUGAACAUGAGGAUCACCCAUGUAUGAGGACAUGAGGCCCUUGGCAGCAUGUAUACAUGA [Same State Theophylline B 2],11.6,12.7,11.4,–,–

Sequence,apparent KD of MS2 coat protein (input ligand: arginine 13.2 mM) [nM],apparent KD of MS2 coat protein [1] [nM],apparent KD of MS2 coat protein [2] [nM],apparent KD of MS2 coat protein [3] [nM],apparent KD of MS2 coat protein (input ligand: none) [nM]
UACAUGAGGAUCACCCAUGUAUGAAGGGAUACCAGCGACAGUAAGCGCCCUUGGCAGCCCGUGAAUAAAGGGUGGGUAAAAUAGU [Exclusion Theophyline A GF 3],26.9,30.9,16.1,39.4,21.4
UACUUGCUGACGGCCGCCACUAGAACAUGAGGAUCACCCAUGUACCCGGUCCUAAUCCUCAUGACUAGGACCGGGUCAGCAAGAU [(Trp1)-(Ms2)-(T)'-(M)'-(Trp2)_Design2],26.4,42.1,–,35.5,–
UACUUGCUGACGGCCGCCACUAGAACAUGAGGAUCACCCAUGUACCCGGUCCUACAUGGGAUGACUAGGACCGGGUCAGCAAGAU [(Trp1)-(Ms2)-(T)'-(M)'-(Trp2)_Design3],39.6,72.4,–,68.5,–
UAGUUGUAGUCGGCCGCCACUGUGAGCAUGGUUAACAUGAGGAUCACCCAUGUCCCGUACUAUAACAGGACCGGGACGUAGUUGC [#10 Same State - Tryptophan B],31.1,79.4,–,134,–
UAUACAUGAGGAUCACCCAUGUGCCAUGAUACCAGACAUGAAAAUGUCCCUUGGCAGCAUGGGAGAUGUAUAGCGGGAAACCCGA [Turany],22.4,198,42.6,677,38.9
UAUACAUGGGAUACCAUGGAUCCGAGUGAUACCAGCUAUCCGAAUAGCCCUUGGCAGCACAGUACAUGAGGAUCACCCAUGUAUA [Theo A SS t5],27.8,30.2,18.6,–,–
UAUAUAUAACAUGAGGAUCACCCAUGUAAACGAGGACCGGUACGGCCGCCACUCGGCCGGCAAGGGAGAGGACGGGAAACCGUCG [ETA NP+V+V2 #26],12.1,23.1,24.4,23,12.8
UAUAUAUAUCACGAACUGUGGUGUAUGUCCCGAGGACCGGUACGGCCGCCACUCGCGUGGUUCCACAUGAGGAUCACCCAUGUUG [XTryp A #7],20.9,31.3,–,25.9,–
UAUCCACAUGAGGAUCACCCAUGUAGGGAAGGAGCGGUGAUUUCACCAGGUAGGUCGCCUUGCUGAGGGUUGCCGGUGGAAUCGU [Exclusion - Arginine A (Freestyle 33)],12.5,14.8,16.2,13.1,15.7
UAUCCACAUGAGGAUCACCCAUGUUAGGAAGGAGCGGUGAAUGAACCAGGUAGGUCGCCUAGCUGAGGACCAUCAAUGGAUUCGU [Exclusion - Arginine A (Freestyle 14)],18.1,35.4,38.1,36.8,31.8
UAUCCACAUGAGGAUCACCCAUGUUAGGAAGGAGCGGUGAAUGAACCAGGUAGGUCGCCUAGCUGAGGACCAUCGAUGGAUUCGU [Exclusion - Arginine A (Freestyle 15)],17,25.5,20.1,27.5,20.3
UAUCGUCAGACGGCCGCCACUAGAACAUGAGGAUCACCCAUGUAGGCGGCCGAUUCCUCAUGAACUAGGACCGGGUCUGACGAAU [(Trp1)-(Ms2)-(T)'-(M)'-(Trp2)_Design12],8.18,26,13.3,8.89,6.6
UCAAGUGAACCAUGGAAACAUUCAAUAGAUACCAGCAUUAAAACCUGCCCUUGGCAGCUAUGAACAUGAGGAUCACCCAUGUGAA [theeternabot_exclusion_MS2_Theo_A_21],17.3,23.3,19.2,–,–
UCGACAAGAACAAUAAACAGCACUUGAGAAGGAGCGCGGAAAUCCGCAGGUAGGUCGCUCAUGUGUACAUGAGGAUCACCCAUGU [Inveonxeed],32.6,49.3,34.5,40.8,39.7
UCGCGAUAGAGAAGGAGCGUCAACACCACUUAACAUGAGGAUCACCCAUGUGUUACUUUGUGACAGGUAGGUCGCUCUAGCGCUU [JR_Nu_ExcArginiB_Sub026],21.1,25.3,18.4,20.9,19.3
UCGCUCUGGGUGAAUCCCAGAGAUAUGGAAGGAGCGGACGAAAGUCCAGGUAGGUCGCCAUCGAACAUGAGGAUCACCCAUGUAC [Same State - Arginine A (Freestyle 27)],62.1,57.8,76.8,76.6,47.6
UCGUUUUAGUCGGCCGCCACUGUAUGCAUGUUUAACAUGAGGAUCACCCAUGUCCCGUACUAUUUCAGGACCGGGACGUAAUCGA [JR_SSTryptoB_Sub007],140,301,–,484,–
UCGUUUUAGUCGGCCGCCACUGUGAGCAUGGUUAACAUGAGGAUCACCCAUGUCCCGUACUAUAACAGGACCGGGACGUAGUUGC [#09 Same State - Tryptophan B],76.4,109,–,253,–
